Measurements as given in patent US20140213531A1 (POLYPHOR, published 2014).
Bridges are numbered along the chain shown (N, C = ends). [ ]: non-standard residue; d: D form. Pro(5R-Ph) = O=C(O)[C@@H]1CC[C@H](c2ccccc2)N1

T1: Elastase from human neutrophils (human, UniProt P08246 30-247, limits assumed)
T1 sequence (looked up): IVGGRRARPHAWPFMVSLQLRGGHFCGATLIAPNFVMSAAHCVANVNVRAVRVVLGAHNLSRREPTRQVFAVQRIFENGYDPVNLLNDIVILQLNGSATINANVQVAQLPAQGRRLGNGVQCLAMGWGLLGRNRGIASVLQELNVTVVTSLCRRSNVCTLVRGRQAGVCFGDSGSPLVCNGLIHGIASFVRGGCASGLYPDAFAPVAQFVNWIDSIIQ

T2: CathepsinG, from human neutrophils (human, UniProt P08311 21-244)
T2 sequence (looked up): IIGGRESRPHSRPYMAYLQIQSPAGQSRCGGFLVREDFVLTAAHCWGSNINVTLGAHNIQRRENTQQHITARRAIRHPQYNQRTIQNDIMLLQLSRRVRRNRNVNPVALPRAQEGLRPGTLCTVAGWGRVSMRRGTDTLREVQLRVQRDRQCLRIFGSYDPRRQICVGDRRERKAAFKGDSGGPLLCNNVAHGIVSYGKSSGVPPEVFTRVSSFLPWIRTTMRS

T3: Chymase, from human skin (human, UniProt P23946 22-247)
T3 sequence (looked up): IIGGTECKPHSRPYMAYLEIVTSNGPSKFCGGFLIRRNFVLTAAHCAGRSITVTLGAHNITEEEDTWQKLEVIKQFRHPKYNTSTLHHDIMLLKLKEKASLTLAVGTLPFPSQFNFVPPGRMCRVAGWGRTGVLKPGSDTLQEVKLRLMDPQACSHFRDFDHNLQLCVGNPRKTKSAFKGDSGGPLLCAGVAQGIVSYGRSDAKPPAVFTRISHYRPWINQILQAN

B1: Example 36 (peptide)
peptide: XCTKSDPPICY
HELM: PEPTIDE1{[Cha].C.T.K.S.D.P.P.I.C.Y.[dP].P}$PEPTIDE1,PEPTIDE1,2:R3-10:R3|PEPTIDE1,PEPTIDE1,1:R1-13:R2$$$V2.0
SMILES: CC[C@H](C)[C@@H]1NC(=O)[C@@H]2CCCN2C(=O)[C@@H]2CCCN2C(=O)[C@H](CC(=O)O)NC(=O)[C@H](CO)NC(=O)[C@H](CCCCN)NC(=O)[C@H]([C@@H](C)O)NC(=O)[C@@H]2CSSC[C@H](NC1=O)C(=O)N[C@@H](Cc1ccc(O)cc1)C(=O)N1CCC[C@@H]1C(=O)N1CCC[C@H]1C(=O)N[C@@H](CC1CCCCC1)C(=O)N2
B2: Example 54 (peptide)
peptide: FCTKSDPPXCS
HELM: PEPTIDE1{F.C.T.K.S.D.P.P.[Cha].C.S.[dP].P}$PEPTIDE1,PEPTIDE1,2:R3-10:R3|PEPTIDE1,PEPTIDE1,1:R1-13:R2$$$V2.0
SMILES: C[C@@H](O)[C@@H]1NC(=O)[C@@H]2CSSC[C@H](NC(=O)[C@H](CC3CCCCC3)NC(=O)[C@@H]3CCCN3C(=O)[C@@H]3CCCN3C(=O)[C@H](CC(=O)O)NC(=O)[C@H](CO)NC(=O)[C@H](CCCCN)NC1=O)C(=O)N[C@@H](CO)C(=O)N1CCC[C@@H]1C(=O)N1CCC[C@H]1C(=O)N[C@@H](Cc1ccccc1)C(=O)N2
B3: Example 16 (peptide)
peptide: FCTKSDPPXCS
HELM: PEPTIDE1{F.C.T.K.S.D.P.P.[Cha].C.S.[dP].P}$PEPTIDE1,PEPTIDE1,2:R3-10:R3|PEPTIDE1,PEPTIDE1,1:R1-13:R2$$$V2.0
SMILES: C[C@@H](O)[C@@H]1NC(=O)[C@@H]2CSSC[C@H](NC(=O)[C@H](CC3CCCCC3)NC(=O)[C@@H]3CCCN3C(=O)[C@@H]3CCCN3C(=O)[C@H](CC(=O)O)NC(=O)[C@H](CO)NC(=O)[C@H](CCCCN)NC1=O)C(=O)N[C@@H](CO)C(=O)N1CCC[C@@H]1C(=O)N1CCC[C@H]1C(=O)N[C@@H](Cc1ccccc1)C(=O)N2
B4: Example 21 (peptide)
peptide: FCTKSEPPICS
HELM: PEPTIDE1{F.C.T.K.S.E.P.P.I.C.S.[dP].P}$PEPTIDE1,PEPTIDE1,2:R3-10:R3|PEPTIDE1,PEPTIDE1,1:R1-13:R2$$$V2.0
SMILES: CC[C@H](C)[C@@H]1NC(=O)[C@@H]2CCCN2C(=O)[C@@H]2CCCN2C(=O)[C@H](CCC(=O)O)NC(=O)[C@H](CO)NC(=O)[C@H](CCCCN)NC(=O)[C@H]([C@@H](C)O)NC(=O)[C@@H]2CSSC[C@H](NC1=O)C(=O)N[C@@H](CO)C(=O)N1CCC[C@@H]1C(=O)N1CCC[C@H]1C(=O)N[C@@H](Cc1ccccc1)C(=O)N2
B5: Example 15 (peptide)
peptide: FCTKSDPPXCS
HELM: PEPTIDE1{F.C.T.K.S.D.P.P.[Nle].C.S.[dP].P}$PEPTIDE1,PEPTIDE1,2:R3-10:R3|PEPTIDE1,PEPTIDE1,1:R1-13:R2$$$V2.0
SMILES: CCCC[C@@H]1NC(=O)[C@@H]2CCCN2C(=O)[C@@H]2CCCN2C(=O)[C@H](CC(=O)O)NC(=O)[C@H](CO)NC(=O)[C@H](CCCCN)NC(=O)[C@H]([C@@H](C)O)NC(=O)[C@@H]2CSSC[C@H](NC1=O)C(=O)N[C@@H](CO)C(=O)N1CCC[C@@H]1C(=O)N1CCC[C@H]1C(=O)N[C@@H](Cc1ccccc1)C(=O)N2
B6: Example 11 (peptide)
peptide: XCTKSDPPICS
HELM: PEPTIDE1{[O=C([C@@H](N[*:1])C1CCCCC1)[*:2]].C.T.K.S.D.P.P.I.C.S.[dP].P}$PEPTIDE1,PEPTIDE1,2:R3-10:R3|PEPTIDE1,PEPTIDE1,1:R1-13:R2$$$V2.0
SMILES: CC[C@H](C)[C@@H]1NC(=O)[C@@H]2CCCN2C(=O)[C@@H]2CCCN2C(=O)[C@H](CC(=O)O)NC(=O)[C@H](CO)NC(=O)[C@H](CCCCN)NC(=O)[C@H]([C@@H](C)O)NC(=O)[C@@H]2CSSC[C@H](NC1=O)C(=O)N[C@@H](CO)C(=O)N1CCC[C@@H]1C(=O)N1CCC[C@H]1C(=O)N[C@@H](C1CCCCC1)C(=O)N2
B7: Example 50 (peptide)
peptide: FCTKSDPPICS
HELM: PEPTIDE1{F.C.T.K.S.D.P.P.I.C.S.[dI].P}$PEPTIDE1,PEPTIDE1,2:R3-10:R3|PEPTIDE1,PEPTIDE1,1:R1-13:R2$$$V2.0
SMILES: CC[C@@H](C)[C@H]1NC(=O)[C@H](CO)NC(=O)[C@@H]2CSSC[C@H](NC(=O)[C@H](Cc3ccccc3)NC(=O)[C@@H]3CCCN3C1=O)C(=O)N[C@@H]([C@@H](C)O)C(=O)N[C@@H](CCCCN)C(=O)N[C@@H](CO)C(=O)N[C@@H](CC(=O)O)C(=O)N1CCC[C@H]1C(=O)N1CCC[C@H]1C(=O)N[C@@H]([C@@H](C)CC)C(=O)N2
B8: Example 8 (peptide)
peptide: RXTKSDPPIXF
HELM: PEPTIDE1{R.[Nle].T.K.S.D.P.P.I.[Nle].F.[dP].P}$PEPTIDE1,PEPTIDE1,1:R1-13:R2$$$V2.0
SMILES: CCCC[C@@H]1NC(=O)[C@H](CCCNC(=N)N)NC(=O)[C@@H]2CCCN2C(=O)[C@H]2CCCN2C(=O)[C@H](Cc2ccccc2)NC(=O)[C@H](CCCC)NC(=O)[C@H]([C@@H](C)CC)NC(=O)[C@@H]2CCCN2C(=O)[C@@H]2CCCN2C(=O)[C@H](CC(=O)O)NC(=O)[C@H](CO)NC(=O)[C@H](CCCCN)NC(=O)[C@H]([C@@H](C)O)NC1=O
B9: Example 55 (peptide)
peptide: ICTKSDPPQCR
HELM: PEPTIDE1{I.C.T.K.S.D.P.P.Q.C.R.[dP].P}$PEPTIDE1,PEPTIDE1,2:R3-10:R3|PEPTIDE1,PEPTIDE1,1:R1-13:R2$$$V2.0
SMILES: CC[C@H](C)[C@@H]1NC(=O)[C@@H]2CCCN2C(=O)[C@H]2CCCN2C(=O)[C@H](CCCNC(=N)N)NC(=O)[C@@H]2CSSC[C@H](NC1=O)C(=O)N[C@@H]([C@@H](C)O)C(=O)N[C@@H](CCCCN)C(=O)N[C@@H](CO)C(=O)N[C@@H](CC(=O)O)C(=O)N1CCC[C@H]1C(=O)N1CCC[C@H]1C(=O)N[C@@H](CCC(N)=O)C(=O)N2
B10: Example 73 (peptide)
peptide: FCTKSDPPICS
HELM: PEPTIDE1{F.C.T.K.S.D.P.P.I.C.S.[dI].P}$PEPTIDE1,PEPTIDE1,2:R3-10:R3|PEPTIDE1,PEPTIDE1,1:R1-13:R2$$$V2.0
SMILES: CC[C@@H](C)[C@H]1NC(=O)[C@H](CO)NC(=O)[C@@H]2CSSC[C@H](NC(=O)[C@H](Cc3ccccc3)NC(=O)[C@@H]3CCCN3C1=O)C(=O)N[C@@H]([C@@H](C)O)C(=O)N[C@@H](CCCCN)C(=O)N[C@@H](CO)C(=O)N[C@@H](CC(=O)O)C(=O)N1CCC[C@H]1C(=O)N1CCC[C@H]1C(=O)N[C@@H]([C@@H](C)CC)C(=O)N2

molecular target: Urokinase from human urine (human, UniProt P00749 21-431, limits assumed); assay: cell-based or functional assay

% inhibition at 100 µM [%] | Binder
0 | B1
3.2 | B2
3.2 | B3

molecular target: T1, Elastase from human neutrophils; assay: cell-based or functional assay

IC50 [nmol] | % inhibition at 100 µM [%] | Binder
16.4 |  | B4
> 100000 |  | B2
> 100000 |  | B5
> 100000 |  | cyclo(FCTKSDPPICS[dP][Pro(5R-Ph)]) (disulfide 2-10) [Example 48]
 | 19 | B6
> 100000 |  | B7
> 100000 |  | B3
 | 0.8 | B8
> 100000 |  | B9
> 100000 |  | B10

molecular target: T2, CathepsinG, from human neutrophils; assay: cell-based or functional assay

IC50 [nmol] | Binder
41 | B1
97 | B4
66 | B2
56 | B5
83 | cyclo(FCTKSDPPICS[dP][Pro(5R-Ph)]) (disulfide 2-10) [Example 48]
95 | B6
89 | B7
66 | B3
126 | B8
55 | B9
89 | B10

molecular target: Chymotrypsin, from human pancreas (human, UniProt P17538 19-263); assay: cell-based or functional assay
Sequence (P17538 19-263): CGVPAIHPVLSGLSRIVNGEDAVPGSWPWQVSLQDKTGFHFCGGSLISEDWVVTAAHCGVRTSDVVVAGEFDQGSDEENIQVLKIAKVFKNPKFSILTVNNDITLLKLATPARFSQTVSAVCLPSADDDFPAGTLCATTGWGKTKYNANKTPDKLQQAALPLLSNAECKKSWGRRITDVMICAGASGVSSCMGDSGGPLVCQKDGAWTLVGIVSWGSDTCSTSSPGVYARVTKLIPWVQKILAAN

% inhibition at 100 µM [%] | Binder
2.6 | B4
3 | cyclo(FCTKSDPPICS[dP][Pro(5R-Ph)]) (disulfide 2-10) [Example 48]
73.6 | B6
0 | B7
5.6 | B8
16 | B9
0 | B10

molecular target: Trypsin, Iodination grade, from human pancreas (human, UniProt P07477 24-247); assay: cell-based or functional assay

% inhibition at 100 µM [%] | Binder
95.6 | B4
90 | B2
95 | B5
93 | cyclo(FCTKSDPPICS[dP][Pro(5R-Ph)]) (disulfide 2-10) [Example 48]
6.5 | B6
94 | B7
90 | B3
74.2 | B8
90 | B9
94 | B10

molecular target: Tryptase, from human lung (human, UniProt Q15661 31-275, limits assumed); assay: cell-based or functional assay
Sequence (Q15661 31-275 limits assumed): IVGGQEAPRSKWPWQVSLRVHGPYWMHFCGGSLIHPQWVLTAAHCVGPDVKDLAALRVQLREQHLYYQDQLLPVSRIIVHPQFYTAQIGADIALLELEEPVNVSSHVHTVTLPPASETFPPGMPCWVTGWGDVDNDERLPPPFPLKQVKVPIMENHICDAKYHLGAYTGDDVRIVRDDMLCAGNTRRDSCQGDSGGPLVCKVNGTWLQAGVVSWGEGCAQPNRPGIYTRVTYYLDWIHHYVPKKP

% inhibition at 100 µM [%] | Binder
73.3 | B1
90.4 | B9

molecular target: T3, Chymase, from human skin; assay: cell-based or functional assay

% inhibition at 100 µM [%] | Binder
5 | B4
12.9 | B2
12.7 | B5
12.1 | B6
12.9 | B3
71.7 | B8
27.6 | B9
